From paper PMC8113403, “Assembly of Natively Synthesized Dual Chromophores Into Functional Actinorhodopsin” (Frontiers in Microbiology, 2021)

Test system: Asp85
Assay: UV-vis
Conditions: not stated (0.02% DDM solution; pH adjusted with small amounts of HCl or NaOH); Purified, detergent-solubilised holoprotein with all-trans-retinal; no carotenoid; light adaptation not stated

| Substance | pKa |
| --- | --- |
| Actinorhodopsin ActR-13023 (Candidatus Aquiluna sp. IMCC13023) | ≈ 7.81 |
| Actinorhodopsin ActR-13023 E96Q (Candidatus Aquiluna sp. IMCC13023; E96Q) | 7.67 |
